According to paper PMC6200392:

Columns and labels:
[1] = molecular target: PRC1 (unlabeled, full-length) (human) (UniProt O43663)
[2] = molecular target: PRC1 N-terminus (Homo sapiens) (UniProt O43663); conditions: cited from earlier work

Row | relative sliding of PRC1-crosslinked antiparallel microtubules, average phase-1 sliding velocity; 0.2 and 1 nM PRC1 at 6 nM Kif4A-GFP [1] [nm/s] | Substance | Kd [2] [nM]
1 | 46 | Kif4A-GFP (from UniProt O95239 1-1232) (natural protein) | –
2 | – | Kif4A C-terminus (from UniProt O95239) | 300
